Results taken from patent publication US20050221459.

Row | Substance | Turnover numbers under the optimal substrate concentrations (Ras-CVLS (SEQ ID NO: 3)) [min⁻¹] | substrate specificity characterized by enzymatic assays (Ras-CVLS (SEQ ID NO: 3)) | Turnover numbers under the optimal substrate concentrations (Ras-CVLL (SEQ ID NO: 4)) [min⁻¹]
1 | Human protein farnesyltransferase (hFTase) | 1 | – | –
2 | W102T mutant of human FTase (W102β converted to threonine) | 0.59 | creating an FTase enzyme greatly preferring GGPP over FPP as its isoprenoid substrate without significantly altering Ca1a2X sequence specificity | –
3 | Wild-type GGTase-I used in the prenylation assay of Example 3 | – | – | 0.65
